Patent US7341836B2, “Modified cyclic nucleotide gated ion channels” (The Regents of the University of Colorado, priority 2001, dated 2008)
Entries after “also recorded” stand apart in the source; their conditions may differ.

B1: C460W/E583M: modified rat olfactory cyclic nucleotide-gated ion channel containing the C460W/E583M mutation, SEQ ID NO:6 (protein, listed as Rattus norvegicus)
chain: MMTEKSNGVKSSPANNHNHHPPPSIKANGKDDHRAGSRPQSVAADDDTSPELQRLAEMDTPRRGRGGFQRIVRLVGVIRDWANKNFREEEPRPDSFLERFRGPELQTVTTHQGDDKGGKDGEGKGTKKKFELFVLDPAGDWYYRWLFVIAMPVLYNWCLLVARACFSDLQRNYFVVWLVLDYFSDTVYIADLIIRLRTGFLEQGLLVKDPKKLRDNYIHTLQFKLDVASIIPTDLIYFAVGIHSPEVRFNRLLHFARMFEFFDRTETRTSYPNIFRISNLVLYILVIIHWNACIYYVISKSIGFGVDTWVYPNITDPEYGYLAREYIYCLYWSTLTLTTIGETPPPVKDEEYLFVIFDFLIGVLIFATIVGNVGSMISNMNATRAEFQAKIDAVKHYMQFRKVSKDMEAKVIKWFDYLWTNKKTVDEREVLKNLPAKLRAEIAINVHLSTLKKVRIFQDWEAGLLVELVLKLRPQVFSPGDYICRKGDIGKEMYIIKEGKLAVVADDGVTQYALLSAGSCFGEISILNIKGSKMGNRRTANIRSLGYSDLFCLSKDDLMEAVTEYPDAKKVLEERGREILMKMGLLDENEVAASMEVDVQEKLEQLETNMDTLYTRFARLLAEYTGAQQKLKQRITVLETKMKQNHEDDYLSDGINTPEPTAAE

Experiments:
[1] = tested on: rat olfactory CNG channel α subunit; experiment: Excised inside-out patch recordings, cyclic nucleotide dose-response of CNG channel constructs; format: biochemical; conditions: for Imax^cGMP/Imax^cAMP: current at saturating cGMP divided by current at saturating cAMP
Experimental: (§1) As described in greater detail herein, the effects of modifications to CNG channels were assessed using the Hill equation, I/Imax=[cNMP]^N/([cNMP]^N+K1/2^N), where I/Imax is the fraction of maximal current, cNMP represents cyclic nucleotide, K1/2 is the concentration that gives half-maximal current, and N is the Hill coefficient, an index of cooperativity. I/Imax^cGMP/Imax^cAMP is the current induced by saturating cGMP divided by the current induced by saturating cAMP. Data (mean±standard deviation of three experiments) were obtained from excised membrane patches using standard patch clamp techniques.
(§2) To assess the cyclic nucleotide sensitivity of different CNG channel constructs, excised, inside-out patch recordings were made at room temperature (20-21° C.) using an Axopatch-200A patch clamp amplifier (Axon Instruments Inc.). Pipettes were pulled from borosilicate glass and heat polished. Pipettes were lowered onto the cells and gigaohm seals were formed. Patches were excised by shearing cells from the pipette with a jet of liquid. Ionic currents were elicited by 250 ms pulses to membrane potentials of +50 and −50 mV from a holding potential of 0 mV. Current records were sampled at five times the filter setting and stored on an IBM compatible computer. Records were corrected for errors due to series resistance (pipette resistance was 4.1 ±0.1 MΩ). Both the pipette and bath solutions contained (mM): 130 NaCl, 2 HEPES, 0.02 EDTA, and 1 EGTA, pH 7.6. Cyclic nucleotide-induced currents were obtained from the difference between currents in the presence and absence of cyclic nucleotides. Dose response curves for cAMP and cGMP were obtained at +50 and −50 mV in the same patch. The effects of the modifications were assessed using the Hill equation, I/Imax=[cNMP]^N/([cNMP]^N+K1/2^N), where I/Imax is the fraction of maximal current, cNMP represents cyclic nucleotide, K1/2 is the concentration that gives half-maximal current, and N is the Hill coefficient, an index of cooperativity. K1/2 and N for cAMP were 36±5 μM, 10±2 μM, 1.0±0.3 μM, and […] for WT, E583M, C460/E583M, and Δ61-90/C460W/E583M channels, respectively (See, Rich et al., J. Gen. Physiol. [2001], supra).
(§3) The cyclic nucleotide sensitivity of the C460W/E583M CNG channel was assessed in excised, inside-out patches as known in the art (See, Rich et al. [2001], supra). K1/2 and N were 1.1±0.3 μM and 2.1±0.4 at +50 mV; and 1.0±0.3 μM and 2.0 ±0.3 at −50 mV (n=11). With these values, the cAMP concentration could be calculated from currents measured in perforated patch experiments (Rich et al. Proc. Natl. Acad. Sci. [2001], supra).

[2] = tested on: HEK-293 cells expressing C460W/E583M channels; experiment: PGE1-induced cAMP responses in cell populations (Ca2+ influx through C460W/E583M channels); format: cell-based, human; conditions: 100 nM PGE1
From the text: In this Example, experiments conducted to detect cAMP levels in cells are described. Changes in cyclic AMP concentrations in response to PGE1 stimulation were monitored in HEK-293 cells by measuring Ca^2+ influx through C460W/E583M CNG channels (See, Rich et al. [2001], supra). HEK-293 cells express a variety of extracellular receptors including prostanoid receptors (Thomas and Hoffman, Mol. Pharmacol., 49:907-914 [1996]), and the cAMP-specific PDE type IV (Rich et al. [2001], supra; and Hoffmann et al., EMBO J., 18:893-903 [1999]). Based on PCR analysis, these cells also appear to express AC types II, […], VI, and VII, (Hellevuo et al., Biochem. Biophys. Res. Commun., 192:311-318 [1993]). C460W/E583M channels were expressed heterologously using an adenovirus construct (See, Rich et al. [2001], supra). The Ca^2+ permeability of the channel was used to detect changes in local cAMP concentration; the fluorescent indicator fura-2 was used to monitor Ca^2+ entry. With this approach, incremental changes in cAMP concentration are readily detected as changes in relative Ca^2+ influx rates through C460W/E583M channels (See, Rich et al., [2001], supra).
Transient responses were observed over a large range of PGE1 concentrations, from 0.01 to 10 μM (FIG. 17, Panel A). […] The decline was unlikely to result primarily from a reduction in AC activity (e.g., receptor desensitization), because of the sustained accumulation of total cellular cAMP in the presence of IBMX (See, FIG. 16, Panel B). To verify this, 100 μM IBMX was added at various times after PGE1 application.
To test whether PGE1 did indeed increase the total PDE activity, 100 nM PGE1 were added at various times after the initial application of 100 nM PGE1 (a subsaturating concentration). There was a negligible response to the subsequent addition of PGE1, even after 50 min (FIG. 17, Panel D). Taken together, the results of the experiments shown in FIG. 17, Panels C and D argue that the cAMP transient is due to an initial increase in AC activity, followed by a more profound increase in PDE activity. […] As indicated herein, these processes are crucial for the generation of spatially and temporally distinct cAMP signals.

[3] = tested on: HEK-293 cells expressing C460W/E583M channels; experiment: Single-cell local cAMP measurement, perforated patch or whole cell currents through C460W/E583M channels; format: cell-based, human; conditions: 1 μM PGE1
Experimental: Single-cell cAMP measurements were made using either the perforated patch or whole cell patch clamp technique (Rich et al. [2000], supra). In the perforated patch configuration, the pore forming antibiotic nystatin was added to the pipette solution to gain electrical access to the cell's interior while retaining divalent cations and larger molecules like cAMP in the cell. Recordings were made using an Axopatch-200A patch clamp amplifier (Axon Instruments). Pipette resistance was limited to 5 ΩM and averaged 3.4±0.5 ΩM (measurements provided herein are expressed as mean±standard deviation). In the perforated patch configuration, a steady access resistance was obtained 5-15 minutes following seal formation. […] These quantities were monitored throughout the experiments to ensure stable electrical access was maintained. […] The time to exchange the extracellular solution was measured by applying a 140 mM KCl solution to a depolarized cell (+50 mV), and monitoring changes in current through endogenous voltage-gated K^+ channels; for each experiment, it was less than 60 ms. […] In most of these experiments, the pipette solution also contained 1 mM cAMP; at the end of the experiment the maximal cAMP-induced current could be measured by rupturing the cell membrane at the tip of the pipette with suction, allowing saturating cAMP to diffuse to the channels (See, Rich et al. [2000], supra). […]

[4] = target: T1, rat olfactory CNG channel α subunit (Rattus norvegicus, UniProt Q00195, C460W/E583M); experiment: Excised inside-out patch recordings, cyclic nucleotide dose-response of CNG channel constructs; format: biochemical; conditions: for N: Hill coefficient, n=11, Example 9
T1 construct: expressed in transfected cells; host or cells: HEK-293 (adenovirus infection)
T1 sequence (Q00195 1-664 C460W/E583M): B1 chain
Experimental: as §1, §2, §3

[5] = tested on: HEK-293 cells expressing CNG channels; experiment: Forskolin-induced cAMP accumulation monitored by Ca2+ influx (fura-2) through expressed CNG channels; format: cell-based, human; conditions: 100 μM IBMX; forskolin 0-50 μM
Experimental: Next, experiments were conducted to assess the ability of each channel construct to detect increases in local cAMP concentration. Changes in cAMP concentration were detected using fura-2 to monitor Ca^2+ influx through CNG channels, as described in the Examples. Ca^2+ influx induced by different concentrations of forskolin, an AC activator, in the presence of 100 μM IBMX, a nonselective PDE inhibitor was measured. This approach allowed comparisons to be made between the cAMP sensitivities of the different channels to changes in cAMP, regardless of variations in expression levels between experiments. In HEK-293 cells expressing the WT channel, addition of forskolin was followed by a brief delay and an increase in Ca^2+ influx (See, FIG. 7, Panel A). The delay decreased and the rate of Ca^2+ influx increased in a dose-dependent manner. Neither effect was saturated at 50 μM forskolin. In cells expressing the E583M channel, addition of forskolin was also followed by a brief delay and an increase in Ca^2+ influx (FIG. 7, Panel B). As with the WT channel, the delay and the initial rate of Ca^2+ influx were dose-dependent. […] In cells expressing the Δ61-90/C460W/E583M channel, addition of forskolin caused similar increases in Ca^2+ influx as the E583M channel, including saturation of the delay and rate of influx at 20 μM (compare FIG. 7, Panel B with FIG. 7, Panel D). The increased response of the modified channels to forskolin treatment is consistent with the apparent cAMP affinities measured in excised patches in the absence of Ca^2+-CaM (C460W/E583M>E583M˜Δ61-90/C460W/E583>WT channels). There are several factors that may have contributed to the apparent lack of a Ca^2+-CaM effect on the channels.
Briefly, HEK-293 were maintained in MEM (Life Technologies Inc.) supplemented with 26.2 mM NaHCO3, 10% (v/v) fetal bovine serum (Gemini), penicillin (50 μg/mL), and streptomycin ([…]), pH 7.0, at 37° C. in a humidified atmosphere of 95% air and 5% CO2. Cells were plated at ˜60% confluence in 100 mm culture dishes twenty-four hours prior to infection with the CNG-channel-encoding adenovirus constructs (multiplicity of infection=10 plaque forming units per cell). […] Twenty-four hours post-infection cells were detached with phosphate-buffered saline containing 0.03% EDTA, resuspended in serum-containing medium, and assayed within 12 hours.

Molecule	effect on CNG channel activity in excised membrane patches ([1]; 100 μM IBMX, 1 μM PGE1)	slopes of the initial PGE1-induced responses [2]	average amplitude of the cAMP signal ([3]; five cells)	width at half height of the cAMP response ([3]; perforated patch, −20 mV, six cells)	Imax^cGMP/Imax^cAMP ([1]; +50 mV)	Imax^cGMP/Imax^cAMP ([1]; −50 mV)	lower K1/2 for cAMP than the E583M channel [4]	N ([4]; +50 mV)	N ([4]; −50 mV)	forskolin concentration at which delay and rate of Ca2+ influx saturated [5]
CCCCC[C@H](O)/C=C/[C@H]1[C@H](O)CC(=O)[C@@H]1CCCCCCC(=O)O [PGE1, prostaglandin E1]	no direct effect on channels; also recorded: no change in current was observed	0.0038 ± 0.0003 s⁻¹	0.7 ± 0.4 µM	87 ± 53 s						
B1					0.84 ± 0.10	0.50 ± 0.10	~10 fold	2.1±0.4	2.0 ±0.3	5 µM
